T1: hGP130-his (Sino Biological, Catalog #10974) (human, UniProt P40189 23-619)
T1 construct: Bought his-tagged cytokine receptor used as SPR analyte; also called human gp130 receptor subunit; IL6 receptor beta subunit; not shown: his tag
T1 sequence: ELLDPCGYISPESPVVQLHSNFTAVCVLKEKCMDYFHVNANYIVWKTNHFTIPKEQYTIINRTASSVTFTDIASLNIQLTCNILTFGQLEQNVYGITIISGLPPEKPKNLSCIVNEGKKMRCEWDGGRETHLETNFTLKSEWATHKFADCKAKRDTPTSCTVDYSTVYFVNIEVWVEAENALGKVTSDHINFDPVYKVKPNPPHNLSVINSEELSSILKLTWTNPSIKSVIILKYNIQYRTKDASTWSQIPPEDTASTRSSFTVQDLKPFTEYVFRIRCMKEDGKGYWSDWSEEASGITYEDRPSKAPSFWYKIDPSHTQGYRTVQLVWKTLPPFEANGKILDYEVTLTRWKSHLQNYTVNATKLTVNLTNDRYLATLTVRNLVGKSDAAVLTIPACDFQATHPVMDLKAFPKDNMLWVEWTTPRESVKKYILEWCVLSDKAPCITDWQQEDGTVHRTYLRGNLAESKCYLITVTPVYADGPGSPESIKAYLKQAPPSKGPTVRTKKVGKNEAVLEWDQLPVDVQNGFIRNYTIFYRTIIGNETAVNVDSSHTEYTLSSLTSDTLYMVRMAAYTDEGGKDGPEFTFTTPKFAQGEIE

T2: hIL27Ra-his (Origene, Catalog #TP307012) (human, UniProt Q6UWB1 33-516, limits assumed)
T2 construct: Bought his-tagged cytokine receptor used as SPR analyte; also called human IL27 receptor subunit alpha; not shown: his tag
T2 sequence: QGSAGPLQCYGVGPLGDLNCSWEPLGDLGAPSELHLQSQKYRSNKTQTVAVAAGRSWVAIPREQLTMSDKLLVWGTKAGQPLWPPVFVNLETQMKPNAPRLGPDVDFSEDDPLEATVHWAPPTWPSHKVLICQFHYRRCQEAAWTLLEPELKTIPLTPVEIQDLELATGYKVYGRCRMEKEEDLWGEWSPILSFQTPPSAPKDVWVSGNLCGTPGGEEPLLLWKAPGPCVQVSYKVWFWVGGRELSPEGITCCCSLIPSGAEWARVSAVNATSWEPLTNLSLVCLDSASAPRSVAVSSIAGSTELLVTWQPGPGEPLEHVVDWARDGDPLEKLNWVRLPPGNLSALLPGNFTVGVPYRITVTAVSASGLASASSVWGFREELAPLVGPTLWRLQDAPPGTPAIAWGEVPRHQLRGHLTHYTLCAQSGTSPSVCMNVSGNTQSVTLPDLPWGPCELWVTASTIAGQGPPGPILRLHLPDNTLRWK


What was measured:
[1] = molecular target: T1, hGP130-his (Sino Biological, Catalog …); experiment: SPR Biacore T200; ratio experimental/calculated Rmax
Method: (§1) All experiments were conducted in 10 mM Hepes, 150 mMv NaCl, 0.05% (v/v) Polysorbate 20 (PS20) and 3 mMv EDTA (HBS-EP+ buffer) on a Biacore® T200 instrument equipped with a Protein A chip (Cytiva). Mono-Fc VHH ligands were flowed at 5 μl/min for variable time ranging from 18 to 300 seconds, reaching the capture loads listed in the tables below.
(§2) Following ligand capture, injections of a 2-fold dilution series of his-tagged cytokine receptors typically comprising at least five concentrations between 1 μM and 1 nM were performed in either high performance or single cycle kinetics mode. Surface regeneration was achieved by flowing 10 mMv glycine-HCl, pH 1.5 (60 seconds, 50 μL/min). Buffer-subtracted sensograms were processed with Biacore® T200 Evaluation Software and globally fit with a 1:1 Langmuir binding model (bulk shift set to zero) to extract kinetics and affinity constants (ka, kd, KD). RMAX<100 RU indicates surface density compatible with kinetics analysis. Calculated Rmax were generated using the equation Rmax=Load (RU)×valency of ligand×(Molecular weight of analyte/Molecular weight of ligand. Surface activity was defined as the ratio experimental/calculated Rmax. See tables below for sample information and experimental results.

[2] = molecular target: T1, hGP130-his (Sino Biological, Catalog …); experiment: SPR Biacore T200, hgp130 arm
Method: as §1, §2

[3] = molecular target: T1, hGP130-his (Sino Biological, Catalog …); experiment: SPR Biacore T200; mono-Fc VHH on Protein A chip, hGP130-his analyte
Method: as §1, §2

[4] = molecular target: T2, hIL27Ra-his (Origene, Catalog #TP307012); experiment: SPR Biacore T200, hIL27Ra arm
[5] = molecular target: T2, hIL27Ra-his (Origene, Catalog #TP307012); experiment: SPR Biacore T200; ratio experimental/calculated Rmax
Method: as §1, §2

[6] = molecular target: T2, hIL27Ra-his (Origene, Catalog #TP307012); experiment: SPR Biacore T200; mono-Fc VHH on Protein A chip, hIL27Ra-his analyte
Method: as §1, §2

Row | Binder | Surface Activity [1] [%] | Kd [2] [nM] | koff [2] [s⁻¹] | kon [2] [M⁻¹ s⁻¹] | Kd [3] [nM] | koff [3] [s⁻¹] | kon [3] [M⁻¹ s⁻¹] | Kd [4] [nM] | koff [4] [s⁻¹] | kon [4] [M⁻¹ s⁻¹] | Surface Activity [5] [%] | Kd [6] [nM] | koff [6] [s⁻¹] | kon [6] [M⁻¹ s⁻¹]
1 | 18-DR595 (SEQ ID NO. 236), anti-hGP130 Mono-Fc VHH (Fc fusion, Mono-Fc VHH ligand captured on a Protein A chip; not shown: mono-Fc part) QVQLQESGGGSVQAGGSLTLSCAASEYAYSTCNMGWYRQAPGKERELVSAFISDGSTYYADSVKGRFTITRDNAKNTVYLQMNSLKPEDTAIYYCSANCYRRLRNYWGQGTQVTVSS | 33 | 41 | 0.0073 | 180000 | 41 | 0.0073 | 180000 |  |  |  |  |  |  | 
2 | 14-DR591 (SEQ ID NO. 232), anti-hGP130 Mono-Fc VHH (Fc fusion, Tested as Mono-Fc VHH ligand captured on a Protein A chip; not shown: mono-Fc part) QVQLQESGGGSVQAGGSLRLSCTASGAIASGYIDSRWCMAWFRQAPGKEREGVAAIWPGGGLTVYADSVKGRFTISRDHAKNTLYLQMNNLKPEDTAMYYCAAGSPRMCPSLEFGFDYWGQGTQVTVSS | 21 | 33 | 0.0019 | 59000 | 33 | 0.0019 | 59000 |  |  |  |  |  |  | 
3 | 15-DR592 (SEQ ID NO. 233), anti-hGP130 Mono-Fc VHH (Fc fusion, Mono-Fc VHH ligand captured on a Protein A chip; not shown: mono-Fc part) QVQLQESGGGSVQAGGSLRLSCTAPGFTSNSCGMDWYRQAPGKEREFVSSISTDGTTGYADSVKGRFTISKDKAKDTVYLQMNSLKPEDTGMYSCKTKDGTIATMELCDFGYWGQGTQVTVSS | 33 | 38 | 0.0059 | 160000 | 38 | 0.0059 | 160000 |  |  |  |  |  |  | 
4 | 16-DR593 (SEQ ID NO. 234), anti-hGP130 Mono-Fc VHH (Fc fusion, Mono-Fc VHH ligand captured on a Protein A chip; not shown: mono-Fc part) QVQLQESGGGSVQAGGSLRLSCAASGYPYSNGYMGWFRQAPGKEREGVATIYTGDGRTYYADSVKGRFTISRDNAKNTVDLQMSSLKPEDTAMYYCAARAAPLYSSGSPLTRARYNVWGQGTQVTVSS | 20 | 82 | 0.021 | 250000 | 82 | 0.021 | 250000 |  |  |  |  |  |  | 
5 | 20-DR597 (SEQ ID NO. 245), anti-hIL27Ra Mono-Fc VHH (Fc fusion, Mono-Fc VHH ligand captured on a Protein A chip; not shown: mono-Fc part) QVQLQESGGGLVQPGGSLRLSCAASGFTFSSYPMSWVRQAPGKGLEWISTISAGGDTTLYADSVKGRFTSSRDNAKNTLYLQLNSLKTEDAAIYYCAKRIDCNSGYCYRRNYWGQGTQVTVSS |  |  |  |  |  |  |  |  |  |  | 4 | 19 | 0.00057 | 30000
6 | 19-DR596 (SEQ ID NO. 237), anti-hGP130 Mono-Fc VHH (Fc fusion, Mono-Fc VHH ligand captured on a Protein A chip; not shown: mono-Fc part) QVQLQESGGGLVQPGGSLRLSCTASGLTFDDSVMGWFRQAPGKGREAVSCISSSGANAFYADSVKGRFTISRDNAKNTLYLQMNSLKPEDTATYYCKRGHACAGYYPIPYDDYWGQGTQVTVSS | 28 | 44 | 0.0082 | 190000 | 44 | 0.0082 | 190000 |  |  |  |  |  |  | 
7 | 17-DR594 (SEQ ID NO. 235), anti-hGP130 Mono-Fc VHH (Fc fusion, Mono-Fc VHH ligand captured on a Protein A chip; not shown: mono-Fc part) QVQLQESGGGSVQAGGSLRLSCVASASTYCTYDMHWYRQAPGKGREFVSAIDSDGTTRYADSVKGRFTISQGTAKNTVYLQMNSLQPEDTAMYYCKTVCVVGSRWSDYWGQGTQVTVSS | 21 | 58 | 0.0095 | 160000 | 58 | 0.0095 | 160000 |  |  |  |  |  |  | 

Second part, the binder after the results:

Row | Surface Activity [1] [%] | Kd [2] [nM] | koff [2] [s⁻¹] | kon [2] [M⁻¹ s⁻¹] | Kd [3] [nM] | koff [3] [s⁻¹] | kon [3] [M⁻¹ s⁻¹] | Kd [4] [nM] | koff [4] [s⁻¹] | kon [4] [M⁻¹ s⁻¹] | Surface Activity [5] [%] | Kd [6] [nM] | koff [6] [s⁻¹] | kon [6] [M⁻¹ s⁻¹] | Binder
8 |  |  |  |  |  |  |  | 4.5 | 0.00041 | 91000 |  |  |  |  | hIL27Ra_VHH9 (VHH) VHH: QVQLQESGGGSVQSGGSLRLSCAASGFTYSTSNSWMAWFRQAPGKEREGVAAIYTVGGSIFYADSVRGRFTISQDATKNMFYLQMNTLKPEDTAMYYCAAASGRLRGKWFWPYEYNYWGQGTQVTVSS
9 |  |  |  |  |  |  |  |  |  |  | 13 | 17 | 0.001 | 59000 | 23-DR600 (SEQ ID NO. 248), anti-hIL27Ra Mono-Fc VHH (Fc fusion, Mono-Fc VHH ligand captured on a Protein A chip; not shown: mono-Fc part) QVQLQESGGGSVQSGGSLRLSCAASGFTYSTSNSWMAWFRQAPGKEREGVAAIYTVGGSIFYADSVRGRFTISQDATKNMFYLQMNTLKPEDTAMYYCAAASGRLRGKWFWPYEYNYWGQGTQVTVSS
10 |  |  |  |  |  |  |  | 19 | 0.00057 | 30000 |  |  |  |  | hIL27Ra_VHH1 (VHH) VHH: QVQLQESGGGLVQPGGSLRLSCAASGFTFSSYPMSWVRQAPGKGLEWISTISAGGDTTLYADSVKGRFTSSRDNAKNTLYLQLNSLKTEDAAIYYCAKRIDCNSGYCYRRNYWGQGTQVTVSS
11 |  |  |  |  |  |  |  | 17 | 0.001 | 59000 |  |  |  |  | hIL27Ra_VHH15 (VHH) VHH: QVQLQESGGGSVQAGGSLRLSCVASGYVSCDYFLPSWYRQAPGKEREFVSIIDGTGSTSYAASVKGRFTASQDKGKNIAYLQMNTLKPEDTAMYYCKASCVRGRAISEYWGQGTQVTVSS
12 |  |  |  |  |  |  |  |  |  |  | 12 | 4.5 | 0.00041 | 91000 | 24-DR601 (SEQ ID NO. 249), anti-hIL27Ra Mono-Fc VHH (Fc fusion, Mono-Fc VHH ligand captured on a Protein A chip; not shown: mono-Fc part) QVQLQESGGGSVQAGGSLRLSCVASGYVSCDYFLPSWYRQAPGKEREFVSIIDGTGSTSYAASVKGRFTASQDKGKNIAYLQMNTLKPEDTAMYYCKASCVRGRAISEYWGQGTQVTVSS
13 |  |  |  |  |  |  |  | 5.2 | 0.00076 | 150000 |  |  |  |  | hIL27Ra_VHH19 (VHH) VHH: QVQLQESGGGSVQAGGSLRLSCRASGSTYSNYCLGWFRQITGKEREGVAVINWVGGMLYFADSVKGRFTVSQDQAKNTVYLQMNSLKPEDTAMYYCAAESVSSFSCGGWLTRPDRVPYWGQGTQVTVSS
14 |  |  |  |  |  |  |  |  |  |  | 20 | 5.2 | 0.00076 | 150000 | 25-DR602 (SEQ ID NO. 250), anti-hIL27Ra Mono-Fc VHH (Fc fusion, Mono-Fc VHH ligand captured on a Protein A chip; not shown: mono-Fc part) QVQLQESGGGSVQAGGSLRLSCRASGSTYSNYCLGWFRQITGKEREGVAVINWVGGMLYFADSVKGRFTVSQDQAKNTVYLQMNSLKPEDTAMYYCAAESVSSFSCGGWLTRPDRVPYWGQGTQVTVSS
15 |  |  |  |  |  |  |  | 6.1 | 0.00077 | 130000 |  |  |  |  | hIL27Ra_VHH21 (VHH) VHH: QVQLQESGGGLVQPGGSLRLSCAASGFTFSLSSMSWVRQAPGKGLEWVSAISSGGASTYYTDSVKGRFTISRDNAKNMLYLQLNSLKTEDTAMYYCAKGGSGYGDASRMTSPGSQGTQVTVSS
16 |  |  |  |  |  |  |  |  |  |  | 18 | 6.1 | 0.00077 | 130000 | 26-DR603 (SEQ ID NO. 251), anti-hIL27Ra Mono-Fc VHH (Fc fusion, Mono-Fc VHH ligand captured on a Protein A chip; not shown: mono-Fc part) QVQLQESGGGLVQPGGSLRLSCAASGFTFSLSSMSWVRQAPGKGLEWVSAISSGGASTYYTDSVKGRFTISRDNAKNMLYLQLNSLKTEDTAMYYCAKGGSGYGDASRMTSPGSQGTQVTVSS

— patent publication US20240002542A1 (SYNTHEKINE, published 2024)
